Test results reported in publication PMC1540706, “Role of the AP2 β-Appendage Hub in Recruiting Partners for Clathrin-Coated Vesicle Assembly” (PLoS Biology, 2006).
Blank lines part the entries; values can stand above or below the binder they belong to.

B1: 6× His human Eps15-MD (530–791) (domain or fragment, UniProt P42566 530-791, looked up)
chain: STSSSETANLNEHVEGQSNLESEPIHQESPARSSPELLPSGVTDENEVTTAVTEKVCSELDNNRHSKEEDPFNVDSSSLTGPVADTNLDFFQSDPFVGSDPFKDDPFGKIDPFGGDPFKGSDPFASDCFFRQSTDPFATSSTDPFSAANNSSITSVETLKHNDPFAPGGTVVAASDSATDPFASVFGNESFGGGFADFSTLSKVNNEDPFRSATSSSVSNVVITKNVFEETSVKSEDEPPALPPKIGTPTRPCPLPPGKRSI
notes: Eps15 motif domain, human, residues 530-791 (STSSSE…GKRSI); The His-tagged form is named for SPR; also called 6× His hEps15-MD; motif domain of Eps15; source: recombinant (pET28c), purified
B4: human β2-appendage (700–937) used for ITC (domain or fragment, UniProt P63010 700-937, looked up)
chain: IGMAPGGYVAPKAVWLPAVKAKGLEISGTFTHRQGHIYMEMNFTNKALQHMTDFAIQFNKNSFGVIPSTPLAIHTPLMPNQSIDVSLPLNTLGPVMKMEPLNNLQVAVKNNIDVFYFSCLIPLNVLFVEDGKMERQVFLATWKDIPNENELQFQIKECHLNADTVSSKLQNNNVYTIAKRNVEGQDMLYQSLKLTNGIWILAELRIQPGNPNYTLSLKCRAPEVSQYIYQVYDSILKN
notes: AP2 β2-adaptin appendage domain, human, residues 700-937; also called wild-type β2-appendage; β-appendage

Experiments:
Assay in all cases: ITC; VP-ITC; 100 mM HEPES, 50 mM NaCl, 2 mM DTT pH 7.4 at 10 °C; peptides or proteins injected from the syringe into the cell
Details in all cases: both partners purified
[1] = target: B4
[2] = target: T1, human β2-appendage (700–937) R879A used for ITC (human, UniProt P63010 700-937, R879A)
T1 construct: AP2 β2-adaptin appendage domain, human, residues 700-937; also called R879A mutant of the β-appendage
T1 sequence (looked up): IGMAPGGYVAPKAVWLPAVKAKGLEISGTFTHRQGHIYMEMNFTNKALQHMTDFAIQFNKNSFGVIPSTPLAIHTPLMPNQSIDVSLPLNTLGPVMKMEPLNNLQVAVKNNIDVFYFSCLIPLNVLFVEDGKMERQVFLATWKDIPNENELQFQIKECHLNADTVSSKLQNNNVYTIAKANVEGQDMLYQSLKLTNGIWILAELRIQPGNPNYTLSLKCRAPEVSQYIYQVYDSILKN

[3] = target: B1

Binder: B1
stoichiometry N [1]: 2

Kd [1]: ~2 µM
fold stronger than with the wild-type appendage [2]: 10 fold
B2: β-arrestin P-long peptide (peptide)
peptide: DDDIVFEDFARQRLKGMKDD
notes: peptide from the C-terminus of β-arrestin; also called β-arrestin peptide; arrestin peptide; source: synthetic peptide, bought: Institute of Biomolecular Sciences (University of Southampton)

Kd [1]: 46 µM
B3: Eps15 P-short peptide (peptide)
peptide: SFGDGFADFSTL
notes: peptide from Eps15; also called Eps15 peptide; source: synthetic peptide, bought: Institute of Biomolecular Sciences (University of Southampton)

Binder: B4
Kd [3]: ~20 µM
